{
  "source": "the nanobody polyreactivity screen of Harvey et al. (2022)",
  "data": [
    {"test": "yeast display, Sf9 membrane polyspecificity reagent, FACS + sequencing; frameworks hold sequencing errors", "method_in_brief": "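Synthetic nanobody libraries on Saccharomyces cerevisiae BJ5465 were galactose-induced for 36–48 hours, stained 1 hour at 4 °C with 10% biotinylated, detergent-solubilized Sf9 membrane reagent and enriched on streptavidin microbeads. FACS then separated cells into low and high (top ~1%) gates by anti-HA (expression) and streptavidin (reagent binding) fluorescence. Genes were colony-PCR amplified, MiSeq 2 × 250 sequenced and CDR-length filtered. A clone's polyreactivity label is that of its gate of origin.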", "values": [
      {"sequence": "QVQLVESGGGLVQAGGSLRLSCAASGRTYVRDTMGWYRQAPGQERQLVAAITWSGGSTYYADSVKGRFTISRDNAKNTVYLQMNSLKPEDTAVYYCARRYSPHTSVSYYSWGQGNQVTVSS", "polyreactivity (PSR sort gate)": "high polyreactivity"},
      {"sequence": "QVQLVESGGGLVQAGGSLRLSCAASGRTYYWNAMGWYRQAPGKEREFVAAITNTAGSTYYADSVKGRFTISRDNAKNTVYLQMNSLKPEDTAVYYCAKSGNAGYRTYLRDYWGQGTQVTVSS", "polyreactivity (PSR sort gate)": "low polyreactivity"},
      {"sequence": "QVQLVESGGGLVQAGGSLRLSCAASGRTYYWYAMGWYRQAPGKERELVAAISSGGSTYYADSVKGRFTISRDNAKNTVSLQMISLKPEDTAVYYCAAYPQAYIADYDYWGQGTQVTVSS", "polyreactivity (PSR sort gate)": "low polyreactivity"},
      {"sequence": "QVQLVESGGGLVQAGGSLRLSCAASGRYAMGWYRQAPGKVRELVAAISDSDGSTYYADSVKGRFTISRDNAKTNVYLQMNSLKPEDTAVNYCDARSIVRFDSWGQGTQVTVSS", "polyreactivity (PSR sort gate)": "low polyreactivity"},
      {"sequence": "QVQLVESGGGLVQAGGSLRLSCAASGSIAGNAMGWYRQARGKEREMVAAITFRGSGTYYADSVKGRFTISRDNAKKTVYLQMNSLKPEDTAVYYCNAYRRGLSGYGYWGQGTQVTVSS", "polyreactivity (PSR sort gate)": "high polyreactivity"},
      {"sequence": "QVQLVESGGGLVQAGGSLRLSCAASGSICDVNAMGWYRQAPGKEREMVAAISDSGGSTYYADSVKGRFTISRDTAKNTVYLQMNSLNPEDTSVYYCNADWSWYNYYDFDYWGQGTQVTVSS", "polyreactivity (PSR sort gate)": "low polyreactivity"},
      {"sequence": "QVQLVESGGGLVQAGGSLRLSCAASGSICGGYAMGWYRQAPGKERELVAGITRSGGSTYYADSVKGRFTISRDNAKNTVYLQMNSLKPEDTAVYYCAVEIQFYRSPRKVRSYDYWGQGTQVTVSS", "polyreactivity (PSR sort gate)": "low polyreactivity"},
      {"sequence": "QVQLVESGGGLVQAGGSLRLSCAASGSICGLYDMRWYRQAPGKERELVASITGGGSTYADSVKGRFTISRDNAKNTVYLQMNSLKPEDTAVYSFAAKPYSFYGYKYDYWGQGTQVTVSS", "polyreactivity (PSR sort gate)": "low polyreactivity"},
      {"sequence": "QVQLVESGGGLVQAGGSLRLSCAASGSIFAANAMGWYRQAPGKERELVAAISRSGNTYYADSVKGRFTISRDNAKNTVYLQMNSLKPEDTAVYYCAARRDAYGRTYGYWGQGTQVTVSS", "polyreactivity (PSR sort gate)": "high polyreactivity"},
      {"sequence": "QVQLVESGGGLVQAGGSLRLSCAASGSIFAANAMGWYRQAPGKERELVADITKSGGSTYYADSVKGRFTISRDNAKNTVYLQMNSLKPEDTAVYYCNADDTQLESFAPGHGYDYWGQGTQVTVSS", "polyreactivity (PSR sort gate)": "low polyreactivity"},
      {"sequence": "QVQLVESGGGLVQAGGSLRLSCAASGSIFAANVMGWYRQAPGKERELVAVISGGGGRTFYADSVKGRFTISRDNAKNTVYLQMNSLKPEDTAVYYCAADRRDRSPYYYWGQGTQVTVSS", "polyreactivity (PSR sort gate)": "high polyreactivity"},
      {"sequence": "QVQLVESGGGLVQAGGSLRLSCAASGSIFAAYAMGWYRQAPGKERELVAAIDRGGSTDYADSVKGRFTISRDNAKNTVYLQMNSLKPEDTAVYYCAKGYDYYVRRYYYWGQGTQVTVSS", "polyreactivity (PSR sort gate)": "high polyreactivity"},
      {"sequence": "QVQLVESGGGLVQAGGSLRLSCAASGSIFAAYAMGWYRQAPGKERELVAAITSGGGTYYADSVKGRFTISRDNAKNTVYLQMNSLKPEDTAGYYCNAGNTYNRVIWPYYYWGQGTQVTVSS", "polyreactivity (PSR sort gate)": "high polyreactivity"},
      {"sequence": "QVQLVESGGGLVQAGGSLRLSCAASGSIFAAYAMGWYRQAPGKERELVAVINSRGGITSYADSVKGRFTISRDNAKNTVYLQMNSLKPEDTAVYYFAARTWYSWRYDYWGQGTQVTVSS", "polyreactivity (PSR sort gate)": "high polyreactivity"},
      {"sequence": "QVQLVESGGGLVQAGGSLRLSCAASGSIFADNTMGWSRQSPGKERELVAAITSSGRTYYADSVKGRFTISRDNAKNTVYLQMNSLKPEDTAVYYCAAVIYFHDYSPYYYWGQGTQVTVSS", "polyreactivity (PSR sort gate)": "high polyreactivity"},
      {"sequence": "QVQLVESGGGLVQAGGSLRLSCAASGSIFADYAMGWYRQAPGKERELVAAITSGGSTYYADSVKGRFTISRDNAKNTVYLQKNSLKPEDTAVYYCAADWAFSRFAYQTDIYEYWGQGTQVTVSS", "polyreactivity (PSR sort gate)": "low polyreactivity"},
      {"sequence": "QVQLVESGGGLVQAGGSLRLSCAASGSIFAFYAMGWYRQSPGKERELVAAISYNGGSTYYADSVKVRFTLSRDNAKNTVYLQMNSLEPEDTAVYYCAAYHFSAPSEYDYWGQGTQVTVSS", "polyreactivity (PSR sort gate)": "low polyreactivity"},
      {"sequence": "QVQLVESGGGLVQAGGSLRLSCAASGSIFAGNAMGWYRQAPGKERELVAGITFGDDSTYYADSVKGRFTISRDNAKNTVYLQMNSLKPEDTAVYYCATDLHPYNYYFYHYWVDAAYDYWGQGTQVTVSS", "polyreactivity (PSR sort gate)": "low polyreactivity"},
      {"sequence": "QVQLVESGGGLVQAGGSLRLSCAASGSIFAHYAMGWYRQAPGKARELVAAISRGGGSTYYSDSVKGRFTISRDNAKNTVYLQMNSLKPEDTAVYYCAVVRSYRGINDYWGQGTQVTVTS", "polyreactivity (PSR sort gate)": "low polyreactivity"},
      {"sequence": "QVQLVESGGGLVQAGGSLRLSCAASGSIFAKNAMGWYRQAPGKERELVAGIDFSGGSTYYADSVKGRFTISRDNAKNTVYLQMNSLKPEDTAVDYCAADWAYKYELDYWGQGTQVTVSS", "polyreactivity (PSR sort gate)": "low polyreactivity"},
      {"sequence": "QVQLVESGGGLVQAGGSLRLSCAASGSIFAKYAMGWYRQAPGKEREFVAAIRASGGRTYYADSVKGRFTISRDNAKNTVYLQMNSLKPEDTAVYYCAAHLYSSRSDYDGPRSRRNYWGQGTQVTVSS", "polyreactivity (PSR sort gate)": "high polyreactivity"},
      {"sequence": "QVQLVESGGGLVQAGGSLRLSCAASGSIFAKYGMGWYRQAPGKEREFVAAISKSGGITYYADSVKGRFTISRDNAKNTVYLQMNSLKPEDTAVYYCADSYVSYRKRDDYWGQGTQVTVSS", "polyreactivity (PSR sort gate)": "high polyreactivity"},
      {"sequence": "QVQLVESGGGLVQAGGSLRLSCAASGSIFALYAMGWYRQAAGKERELVAAITKGGGSTYYADSVKGRFTISRDNAKNTVYLQMNSLKPEDTAVYYCAARGRYSAPDYGYWGQGTQVTVSS", "polyreactivity (PSR sort gate)": "high polyreactivity"},
      {"sequence": "QVQLVESGGGLVQAGGSLRLSCAASGSIFALYAMGWYRQAPGKERELVAAISNTGGSTYYADSVKGRFTISRDNAKNTVYLQMNSLKPEDTAVYYCAARKARSSPRYYYWGQGTQVTVSS", "polyreactivity (PSR sort gate)": "high polyreactivity"},
      {"sequence": "QVQLVESGGGLVQAGGSLRLSCAASGSIFALYAMGWYRQAPGKERELVAAISRRGGRTYYADSVKGRFTISRDNAKNTVYLQMNSLIPEDTAVYYCNARGYNVPHPNRYDYWGQGTQVTVSS", "polyreactivity (PSR sort gate)": "high polyreactivity"},
      {"sequence": "QVQLVESGGGLVQAGGSLRLSCAASGSIFAPNAMGWYRQAPGKERELVARISRTGGSTNYADSVKGRFTISRDNAKNTVYLQMNSLKPEDTAVYYCNTQYSYSSAPPFWYTQMYYWGQGTQVTVSS", "polyreactivity (PSR sort gate)": "high polyreactivity"},
      {"sequence": "QVQLVESGGGLVQAGGSLRLSCAASGSIFAPYAMGWYRQAPGKERELVATISSIGTSTYYADSVKGRFTISRDNAKNTVYLQMNSLKPEDTAVYYCAADQSGGYPDNYWGQGTQVTVSS", "polyreactivity (PSR sort gate)": "low polyreactivity"},
      {"sequence": "QVQLVESGGGLVQAGGSLRLSCAASGSIFAQNAMGWYRQAPGKERELVAAITSGGSTYYADSVKGRFTISRDNAKNTVYLQMNSLKPEDTAVYYCAARGWGPFYQYYYLGQGTQVTVSS", "polyreactivity (PSR sort gate)": "high polyreactivity"},
      {"sequence": "QVQLVESGGGLVQAGGSLRLSCAASGSIFAQYTMGWYRQAPGKERELVAVISFRGGSTYYADSVKGRFTISRDNAKNTVYLQMNSLKPEDTAVYYCATVGTYPGYGEFDYWGQGTQVTVSS", "polyreactivity (PSR sort gate)": "low polyreactivity"},
      {"sequence": "QVQLVESGGGLVQAGGSLRLSCAASGSIFARFAMGWYRQAPGKERELVAAISGRGGSTYYADSVKGRFTISRDNAKNTVYLQMNSLKPEDTAVYYCNAVGHTSIRRALDILDYWGQVTQVTVSS", "polyreactivity (PSR sort gate)": "high polyreactivity"},
      {"sequence": "QVQLVESGGGLVQAGGSLRLSCAASGSIFARNAMGWSRQAPGKERELVAGISRRGGSTYYADSVKGRFTISRDNAKNTVYLQMNSLKPEDTAVYYCNAVVYSPPYDYWGQGTQVTVSS", "polyreactivity (PSR sort gate)": "high polyreactivity"},
      {"sequence": "QVQLVESGGGLVQAGGSLRLSCAASGSIFARNAMGWYRQAPGKERELVAAISWSGGRTYYADSVKGRFTISRDNAKNTVYLQMNSLKPEDTAVYYCATDTWWGQGTQVTVSS", "polyreactivity (PSR sort gate)": "high polyreactivity"},
      {"sequence": "QVQLVESGGGLVQAGGSLRLSCAASGSIFARNAMGWYRQAPGKERELVASITSNSGNTYYADSVKGRFTISRDNAKNTVYLQMNSLKPEDTAVYYCAADQLSDEYDYWGQGTQVTVSS", "polyreactivity (PSR sort gate)": "high polyreactivity"},
      {"sequence": "QVQLVESGGGLVQAGGSLRLSCAASGSIFARYAMGWYIQAPGKEREFVAAISRSGGSTYYADSVKGRFTISRDNAKNTVYLQMNSLKPEDTAVYYCAARGGTKYDYWGQGTQVTVSS", "polyreactivity (PSR sort gate)": "high polyreactivity"},
      {"sequence": "QVQLVESGGGLVQAGGSLRLSCAASGSIFARYAMGWYRQAPGKERELVAAISSDGSTYYADSVKGRFTISRDNEKNTVYLQMNSLKPEDTAVYYCNTQFRYPQKYDYWGQGTQVTVSS", "polyreactivity (PSR sort gate)": "high polyreactivity"},
      {"sequence": "QVQLVESGGGLVQAGGSLRLSCAASGSIFARYAMGWYRQAPGKERELVAAISSNSASTYYADSVKGRFTSSRDNAKNTVYLQMNSLKPEDTAVDYCATAYRSDWLNDYWGQGTQVTVSS", "polyreactivity (PSR sort gate)": "low polyreactivity"},
      {"sequence": "QVQLVESGGGLVQAGGSLRLSCAASGSIFARYAMGWYRQAPGKERELVAALSGSGASTYYADSVKGRFTISRDNAKNTVYLQMNSLKPEDTAVYYCARPFLRRPTYRFETGYGYWGQGTQVTVSS", "polyreactivity (PSR sort gate)": "high polyreactivity"},
      {"sequence": "QVQLVESGGGLVQAGGSLRLSCAASGSIFARYTMGWYRQAPGKERELVARITSSGGSTYYADSVKGRFTISRDNAKNTVYLQMNSLKPEDTAVYYCAARYRRYVRFQGDYWGQGTQVTVSS", "polyreactivity (PSR sort gate)": "high polyreactivity"},
      {"sequence": "QVQLVESGGGLVQAGGSLRLSCAASGSIFASNAMGWYRQAPGKEREFVAAIRYSAGITYYADSVKGRFTISRDNAKNTVYLQMNSLKPEDTAVYFCSAYGWVNRWYSRFDYWGQGTQVTVSS", "polyreactivity (PSR sort gate)": "high polyreactivity"},
      {"sequence": "QVQLVESGGGLVQAGGSLRLSCAASGSIFASNAMGWYRQAPGKERELVAAITTSGDSTYYADSVKGRFTISRDHAKTTVYFQMNSLKPEDTAVYYCATDKGWGLMDSWGQGTQVTVSS", "polyreactivity (PSR sort gate)": "low polyreactivity"},
      {"sequence": "QVQLVESGGGLVQAGGSLRLSCAASGSIFASNAMGWYRQEPGKEREFVAAITWRTDRTYYADSVKGRFTISRDNEKNTVYLQMNSLKPEDTAGYYCAADTWFYRFYYWGQGTQVTVSS", "polyreactivity (PSR sort gate)": "high polyreactivity"}
    ]}
  ]
}
